Data as given in the supplement of paper PMC9170038.

System: MS2 coat protein
Experiment: apparent KD of MS2 coat protein; designed switch direction (-1 OFF switch, 1 ON switch): -1; higher = weaker reporter binding
How it was run: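 On Illumina chips, designed RNA switches with common flanks were made by stalled E. coli RNA polymerase. Titrations with SNAP-549-labelled MS2 coat protein, doubling from 0.7 or 1.5 nM to 3 µM, were done with no input, with 200 uM small-molecule ligand, or with an oligonucleotide input. Apparent KD is the median per design over clusters, from curve fits of normalised cluster fluorescence.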

[1] = Eterna round: R95, input ligand: microRNA oligo, concentration not stated
[2] = input ligand: microRNA oligo, concentration not stated
[3] = Eterna round: R95, input ligand: FMN 200 uM
[4] = Eterna round: R95, input ligand: none

| Sequence | apparent KD of MS2 coat protein [1] | apparent KD of MS2 coat protein (input ligand: FMN 200 uM) | apparent KD of MS2 coat protein (input ligand: none) | further results |
| --- | --- | --- | --- | --- |
| GAGAUGUGAGGAUAUCUAGACCAUGGAAAAGCCACGGUCCGAGAGAAGGCACAUGAGGAUCACCCAUGUGAUGA [Quedte] (puzzle: Exclusion 4) | 43.7 nM | – | – | – |
| UUCCUGUCAGGAUAUGACUAGAUGCACGUUAGUGUGUUUACUUAGAAGGGACAUGAGGAUCACCCAUGUAGUCC [Bring Us a Shrubbery-16] (puzzle: Exclusion 4) | 31.7 nM | – | – | – |
| AUUUUAAUAUAGGAUAUCGAUUUUAUUAUUUAACGAGAAGGAUAAACAUGAGGAUCACCCAUGUGGUAUCAUGG [JMFs Solution 3] (puzzle: Exclusion 6) | 123 nM | – | – | – |
| AGUUGGCGAGGAUAUACAUGAGGAUCACCCAUGUGAAAUUAAAGUGAGUAAAUGAAAAGUAGAAGGCGCUGACA [Mod of Mat 21 - Jieux - Exclusion 3] (Eterna round: R97, puzzle: Exclusion 3) | – | 259 nM | 40.3 nM | – |
| UACGAAGAGUGAGGAUAUGUGCGACAAAGUUGCACAGAAGGCACAUGAGGAUCACCCAUGUGAGCUAGGUCGAAAGACCUAGCG [Omei Exc(NG)1 Av6] (Eterna round: R96, puzzle: Exclusion NG 1) | – | 37 nM | 19.7 nM | apparent KD of MS2 coat protein [2]: 13.6 nM |
| GGUACUAACACGAAAGUGUUAGUACUAUAAGCUUGUGUUACAUGAGGAUCACCCAUGUCCUCAUAAGCUCGUCUUAU [JL-sv3-2.16 mat747 mod] (puzzle: Sensor v3, turn-off variant 2) | 19.6 nM | – | – | apparent KD of MS2 coat protein [3]: 86.7 nM; apparent KD of MS2 coat protein [4]: 108 nM |
| GGGAAACAUGAGGAUCACCCAUGUAAGGAUAUGCAAAAGGAUAUAGAAGGAAAAAAAAGCAGAAGGUACAAAGG [salish99-ex1_r3_100] (puzzle: Exclusion 1) | 59.8 nM | – | – | apparent KD of MS2 coat protein [3]: 68.8 nM; apparent KD of MS2 coat protein [4]: 57.3 nM |
| GGAGAACAUGAGGAUCACCCAUGUAAGGAUAUGCAAAAGGAUAUAGAAGGAAAAAAAAGCAGAAGGUACAAAGG [salish99-ex1_r3_101] (puzzle: Exclusion 1) | 81.9 nM | – | – | apparent KD of MS2 coat protein [3]: 79.5 nM; apparent KD of MS2 coat protein [4]: 75.1 nM |
| CUUCUCAGAGUCAGGAUAUAGUCGAAAGGGCUAGACUAGAAGGGACAUGAGGAUCACCCAUGUAAAAUAUCAAA [Razalequ] (puzzle: Brourd's mod of Exclusion 4) | 20.4 nM | – | – | – |
| GUUAAGUGAGGAUAUGGUGAGUAGUGCCUGAGCGCUGCUCACCAGAAGGCACAUGAGGAUCACCCAUGUAUAGC [JL-ex4-2.06 denovo] (puzzle: Exclusion 4) | 15.2 nM | – | – | – |
| UUUAAUUUUUUUUUUUUACAAGCUUUUUGCUCGUCUUAUACAUGAGGAUCACCCAUGUGGGUGAAAAGUAAAUUAUC [JMF 44] (puzzle: Sensor v3, turn-off variant 2) | 18.7 nM | – | – | apparent KD of MS2 coat protein [3]: 22.4 nM; apparent KD of MS2 coat protein [4]: 33.1 nM |
| UACAUGUGAGGAUAUUAGUAGUAAAUAAAUAAAAUUAUUACUGAGAAGGUACAUGAGGAUCACCCAUGUUCCUU [Salish 062 v23] (Eterna round: R97, puzzle: Exclusion 4) | – | 17.5 nM | 12.7 nM | – |
| AUAUCACAUGAGGAUCACCCAUGUCAGGAUAUCGACUGAACAGCUUCGGCUGUUCAGUCGAGAAGGGACAAUUA [Brourdxlusion 2 - Jieux - Exclusion 1] (Eterna round: R97, puzzle: Exclusion 1) | – | 84.9 nM | 56.2 nM | – |
| UUCGGCGGAGGAUAUACAUAUUUUUGUUGAAUCGGCGGAAAACAUGAGGAUCACCCAUGUAGAAGGUUGUUGAA [-16.3, -13.4 kcal, A 30%] (Eterna round: R97, puzzle: Exclusion 2) | – | 27.2 nM | 32.3 nM | – |
| GUCGUGCAGCUUUGCUGUACGAGUACAUGAGGAUCACCCAUGUAGGAUAUGGUACGCUUUGCGUGCCAGAAGGACGUGCGUUAG [salish99_ExNG3_r04_001] (Eterna round: R96, puzzle: Exclusion NG 3) | – | 53.3 nM | 39.3 nM | apparent KD of MS2 coat protein [2]: 35.2 nM |
| AAAAGGCGAGGAUAUCCGGGCACGGACAUGAGGAUCACCCAUGUGACCUCGCCCGGCGGAGGAGAAGGCGCCGAAG [Biestein] (Eterna round: R97, puzzle: Exclusion 5) | – | 368 nM | 158 nM | – |
| GUCCUACAUGAGGAUCACCCAUGUAAGGAUAUGCUAGCGGUCGGCUGACUGACUGCUAGCAGAAGGUACAUGAU (puzzle: Exclusion 1) | 15.6 nM | – | – | – |
| CCAGCGUAUGUGAGGAUAUGCUGGUCCUUGGAUCAGCAGAAGGCACAUGAGGAUCACCCAUGUAGAGACGUUGG [JL bmx4 3.43] (puzzle: Brourd's mod of Exclusion 4) | 21.6 nM | – | – | – |
| GAGGCAUGCCGAGGUCCACACAUGAGGAUCACCCAUGUCAUGACAGGCUUUUUACUCGUUUUAUCGCUAUCGCGUUC [Vebizaledi] (puzzle: Sensor v3, turn-off variant 1) | 159 nM | – | – | apparent KD of MS2 coat protein [3]: 84.8 nM; apparent KD of MS2 coat protein [4]: 70.7 nM |
| GGAUCAUAUGUCAGGAUAUGCAGGUCCUUGGAUCUGCAGAAGGGACAUGAGGAUCACCCAUGUCAUGUAGAUCC [Mat - Exclusion 4 - Eli Mod - D54] (Eterna round: R97, puzzle: Brourd's mod of Exclusion 4) | – | 116 nM | 25.3 nM | – |
| UAUAUAUAGUAAGGAUAUGUAGUUAUUUUAUAAACAGAAGGUACUGACAUGAGGAUCACCCAUGUUUUAGUGUGGGCAUGUAGA [JMF's solution 6] (Eterna round: R96, puzzle: Exclusion NG 1) | – | – | – | apparent KD of MS2 coat protein [2]: 71.1 nM |
| AUUUUGUCAGGAUAUUGUUAGUUUAGUUGUUUGUAUUAGUUCGAGAAGGGACAUGAGGAUCACCCAUGUGAUAA [Ex4 #72] (Eterna round: R97, puzzle: Exclusion 4) | – | 71.9 nM | 62.6 nM | – |
| CCUCACAGAGGAUAUACGUCCACUGAACCCAUGAGGUUGCCACAUGAGGAUCACCCAUGUAGAAGGCUGUGCUG [Mageanma] (puzzle: Exclusion 2) | 18.9 nM | – | – | – |
| ACCUUACAUGAGGAUCACCCAUGUCAGGAUAUCUCGGGCGGCUGAGGACCAGCCACCCAGAGAAGGGACGAGGA [Qumaraanan] (puzzle: Exclusion 1) | 11.9 nM | – | – | apparent KD of MS2 coat protein [3]: 15 nM; apparent KD of MS2 coat protein [4]: 15.7 nM |
| UUAUUAAGUGUGAGGAUAUGCUGGUCCUUGGAUCAGCAGAAGGCACAUGAGGAUCACCCAUGUACAAUAUAUUA [Mat - Exclusion 4 - JL Mod - D30] (Eterna round: R96, puzzle: Brourd's mod of Exclusion 4) | – | 235 nM | 42.1 nM | apparent KD of MS2 coat protein [2]: 30.5 nM |
